Consider two substances from publication doi:10.1101/2022.06.07.494932.

For test [1], the target named is α-Synuclein A53T, unlabelled (human) (UniProt P37840). Kind of test: ELISA. On the technique in general: ELISA stands for enzyme-linked immunosorbent assay.
Test [2] has as its target α-Synuclein WT, unlabelled (human) (UniProt P37840). Nature of the test: ELISA.

“α-Synuclein A53T, unlabelled (from UniProt P37840 1-140) (natural protein)”: the intracellular α-Syn oligomer concentration after 3 days in test [1] came out at 16.3 nM.

In the case of “α-Synuclein WT, unlabelled (from UniProt P37840 1-140) (natural protein)”, in test [2], the intracellular α-Syn oligomer concentration after 1 day was determined as 12.3 nM and the intracellular α-Syn oligomer concentration after 3 days turned out to be 13.1 nM.
